{
  "source": "paper PMC6514633",
  "about": "“Structural and functional consequences of age-related isomerization in α-crystallins” (The Journal of Biological Chemistry, 2019)",
  "binders": {"B1": {"name": "Full-length αB-crystallin (WT) (natural protein, human, UniProt P02511 1-175, looked up)", "chain": "MDIAIHHPWIRRPFFPFHSPSRLFDQFFGEHLLESDLFPTSTSLSPFYLRPPSFLRAPSWFDTGLSEMRLEKDRFSVNLDVKHFSPEELKVKVLGDVIEVHGKHEERQDEHGFISREFHRKYRIPADVDPLTITSSLSSDGVLTVNGPRKQVSGPERTIPITREEKPAVTAAPKK", "notes": "αB-crystallin, human, full length; Polydisperse oligomers; also called WT αB"}, "B2": {"name": "Full-length αB-crystallin S59D (phosphomimic) (natural protein, human, UniProt P02511 1-175, looked up)", "chain": "B1 chain with S59D", "notes": "αB-crystallin, human, full length, with S59D; also called αBS59D; source: expressed and purified in the same manner as WT"}, "B3": {"name": "Full-length αB-crystallin D109A (isoAsp-mimic) (natural protein, human, UniProt P02511 1-175, looked up)", "chain": "B1 chain with D109A", "notes": "αB-crystallin, human, full length, with D109A; source: expressed and purified in the same manner as WT"}, "B4": {"name": "Core αB (cABC, residues 68–153) (domain or fragment, human, UniProt P02511 68-153, looked up)", "chain": "MRLEKDRFSVNLDVKHFSPEELKVKVLGDVIEVHGKHEERQDEHGFISREFHRKYRIPADVDPLTITSSLSSDGVLTVNGPRKQVS", "notes": "αB-crystallin, human, α-crystallin core domain, residues 68-153; also called αB core; core of αB"}},
  "key": {"[1]": {"target": "core αA (cAAC, residues 59-153) (human, UniProt P02489 59-153, some population of BME-adducted protein)", "sequence (P02489 59-153)": "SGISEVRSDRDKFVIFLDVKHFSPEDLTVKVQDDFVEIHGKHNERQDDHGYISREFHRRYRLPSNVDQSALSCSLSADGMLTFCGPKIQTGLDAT", "experiment": "native MS; competition: 10 μM core domain with 40 μM each of L-Ser and D-Ser peptide, 200 mM ammonium acetate pH 6.9; monomeric species, 5+, 6+ and 7+ charge states; approximate dissociation constants calculated from abundance ratios (El-Hawiet et al.)", "details": "both partners purified"}, "[2]": {"target": "the molecule itself", "experiment": "native MS; full-length αB and mutants, 15 μM by monomer, 200 mM ammonium acetate pH 6.9, QExactive Orbitrap; intact spectra and CID with charge deconvolution (UniDec) to oligomeric distributions"}, "[3]": {"target": "the molecule itself", "experiment": "native MS; core domains analysed alone, 10 μM, 200 mM ammonium acetate pH 6.9, Synapt G1"}, "[4]": {"target": "B4", "experiment": "native MS; competition: core domain 10 μM mixed with an L-Ser and a D-Ser peptide (one with added glycines), 40 μM each (4:1 peptide/domain), 200 mM ammonium acetate pH 6.9; monomeric species, 5+, 6+, 7+ charge states quantified", "details": "both partners purified"}, "[5]": {"target": "core αA (cAAC, residues 59–153) (human, UniProt P02489 59-153, some population of BME-adducted protein)", "sequence (P02489 59-153)": "as above", "experiment": "native MS; competition: core domain 10 μM mixed with an L-Ser and a D-Ser peptide (one with added glycines), 40 μM each (4:1 peptide/domain), 200 mM ammonium acetate pH 6.9; monomeric species, 5+, 6+, 7+ charge states quantified", "details": "both partners purified"}},
  "note": "Where a chain is given by its changes, count along the chain named. Names may count otherwise. Where no end group is shown, it is not given here. [ ]: non-standard residue; d: D form.",
  "data": [
    {"binder": "ERAIPV[dS]RE", "note": "[C-terminal palindromic peptide of αA-crystallin with D-Ser-162 (D-peptide)]", "values": [
      {"measurement": "Kd", "setting": "[1]", "value": 660, "unit": "µM"}
    ]},
    {"binder": "B1", "values": [
      {"measurement": "binding result", "setting": "[2]", "value": "binds"}
    ]},
    {"binder": "B2", "values": [
      {"measurement": "stoichiometry N", "setting": "[2]", "value": "~18"}
    ]},
    {"binder": "B3", "values": [
      {"measurement": "binding result", "setting": "[2]", "value": "binds"}
    ]},
    {"binder": "B4", "values": [
      {"measurement": "stoichiometry N", "setting": "[3]", "value": 2}
    ]},
    {"binder": "ERAIPVSRE", "note": "[Ct peptide ERAIPVSRE with L-Ser (canonical all L-amino acid form)]", "values": [
      {"measurement": "Kd", "setting": "[4]", "value": 115, "unit": "µM"},
      {"measurement": "Kd", "setting": "[5]", "value": 48, "unit": "µM"}
    ]},
    {"binder": "GERAIPVSREG", "note": "[G-Ct-G peptide GERAIPVSREG with L-Ser (appended-glycine L-isomer)]", "values": [
      {"measurement": "binding result", "setting": "[4]", "value": "binds"},
      {"measurement": "binding result", "setting": "[5]", "value": "binds"}
    ]}
  ]
}
